In patent US20210095014A1 (NGM BIOPHARMACEUTICALS, published 2021):

Legend:
[1] = target: T1, SE1 peptide of human ANGPTL8 (amino acids 25-60) (human); assay: BIACORE (SPR), antibody from hybridoma supernatant captured by anti-mouse Fc, peptide injected, 25 C
T1 construct: also called hSE1; hSE1 peptide
T1 peptide: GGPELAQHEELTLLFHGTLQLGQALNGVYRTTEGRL
Method: (§1) The binding affinities of antibodies 1E5, 1A8, and 1E9 to human ANGPTL8 were measured using a BIACORE system (GE Healthcare LifeSciences). Briefly, anti-mouse Fc antibody (Sigma-Aldrich) was immobilized on all four flow cells of a CM5 chip using amine coupling reagents (GE Healthcare LifeSciences). Antibody from hybridoma supernatants were captured on flow cells 2, 3, and 4 using flow cell 1 as a reference. The SE1 peptide of human ANGPTL8 (hSE1; SEQ ID NO:6), a corresponding SE1 peptide of cynomolgus monkey ANGPTL8 (cSE1; SEQ ID NO:67), or human ANGPTL8 was injected at a flow rate of 50 μL/min at 25° C. Kinetic data were collected over time and fit using the simultaneous global fit equation to yield affinity constants (KD values) for each antibody.
(§2) Assay results are shown in Table 4 and the BIACORE result for 1E5 binding to hANGPTL8 (NusA-hANGPTL8 fusion protein) is shown in FIG. 4.

[2] = target: T2, SE1 peptide of cynomolgus monkey ANGPTL8 (amino acids 25-60) (cynomolgus monkey); assay: as above
T2 construct: also called cSE1; cSE1 peptide
T2 peptide: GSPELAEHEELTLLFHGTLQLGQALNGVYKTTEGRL
Method: as §1, §2

[3] = target: T3, NusA-hANGPTL8 fusion protein (human, UniProt Q6UXH0 22-198); assay: BIACORE (SPR), antibody from hybridoma supernatant captured by anti-mouse Fc, NusA-hANGPTL8 injected, 25 C
T3 construct: Expressed in E. coli BL21 and captured on a chelating Sepharose column; also called hANGPTL8 (NusA-hANGPTL8 fusion protein); not shown: bacterial NusA protein, fusion partner
T3 sequence: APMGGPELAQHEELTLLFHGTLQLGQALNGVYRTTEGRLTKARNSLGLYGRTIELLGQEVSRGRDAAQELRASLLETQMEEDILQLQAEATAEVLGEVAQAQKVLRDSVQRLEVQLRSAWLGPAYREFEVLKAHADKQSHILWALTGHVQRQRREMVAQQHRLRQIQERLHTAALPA
Method: as §1, §2

[4] = target: T1, SE1 peptide of human ANGPTL8 (amino …); assay: BIACORE (SPR); humanized antibody Hz1E5
[5] = target: T1, SE1 peptide of human ANGPTL8 (amino …); assay: BIACORE (SPR); chimeric 1E5 (murine variable regions, human Fc)

B1: anti-ANGPTL8 antibody 1E5 (antibody, V domains shown)
VH: QVQLQQSGAELVKPGTSVRLSCKASGYTFTDYTIHWVKLRSGQGLEWIGWFYPGSDNIKYNAKFKDKATLTADKSSSTVYMDLGRLTSEDSAVYFCARHEAFSYYDVAWFAYWGQGTLVTVSA
VL: DVVMTQTPLSLPVSLGDQASISCRSSQSLVHSNGNTYLHWYLQKPGQSPKLLIYTVSNRFSGVPDRFSGSGSGSDFTLNFSRVEAEDLGVYFCSQTTHFPYTFGGGTKLEIK
notes: Mouse monoclonal antibody, tested from hybridoma supernatant and captured by anti-mouse Fc; also called parental 1E5 from hybridoma
- Kd [1]: 0.41 nM
- Kd [2]: 0.67 nM
- Kd [3]: 0.44 nM

B2: humanized anti-ANGPTL8 antibody Hz1E5 (antibody, human IgG1, kappa, V domains shown)
VH: EVQLVQSGAEVKKPGSSVKVSCKASGYTFTDYTIHWVRQAPGQGLEWMGWFYPGSDNIKYNAKFKDRATLTADKSTSTAYMELSSLRSEDTAVYYCARHEAFSYYDVAWFAYWGQGTLVTVSS
VL: DVVMTQTPLSLPVTPGEPASISCRSSQSLVHSNGNTYLHWYLQKPGQSPQLLIYTVSNRFSGVPDRFSGSGSGSDFTLKISRVEAEDVGVYFCSQTTHFPYTFGQGTKVEIKR
notes: also called Hz1E5.A1
- Kd [4]: 0.9 nM

B3: chimeric 1E5 antibody (antibody, V domains shown)
VH: QVQLQQSGAELVKPGTSVRLSCKASGYTFTDYTIHWVKLRSGQGLEWIGWFYPGSDNIKYNAKFKDKATLTADKSSSTVYMDLGRLTSEDSAVYFCARHEAFSYYDVAWFAYWGQGTLVTVSA
VL: DVVMTQTPLSLPVSLGDQASISCRSSQSLVHSNGNTYLHWYLQKPGQSPKLLIYTVSNRFSGVPDRFSGSGSGSDFTLNFSRVEAEDLGVYFCSQTTHFPYTFGGGTKLEIK
notes: Contains 'the murine variable regions of 1E5 and a human Fc region'; also called chimeric antibody 1E5
- Kd [5]: 0.35 nM

B4: anti-ANGPTL8 antibody 1A8 (antibody, V domains shown)
VH: QVQLQQSGAELVKPGASVKLSCKASGYTFTDYTIHWVKQRSGQGLEWIGWFYPGSDNIKYNEKFKDKATLTADKSSSIVYMELSRLTSEDSAVYFCARHEAYYVYDVAWFAYWGQGTLVTVSA
VL: DVVMTQTPLSLPVSLGDQASISCSSSQSLVHSNGNTFLHWFLQRPGQSPKLLIYTVSNRFSGVPDRFSGSGSGTDFTLKISRVEAEDLGVYFCSQSTHFPYTFGGGTTLEIK
notes: Mouse monoclonal antibody, tested from hybridoma supernatant and captured by anti-mouse Fc
- Kd [1]: 0.8 nM
- Kd [2]: 1.04 nM
- Kd [3]: 2.5 nM

B5: anti-ANGPTL8 antibody 1E9 (antibody, V domains shown)
VH: QVQLQQSGTELVKPGASVKLSCKASGYTFTDYTIHWVKQRSGQGLEWIGWFYPGSDNIKFNAKFRDKATLTADKSSSTVYMELSRLTSEDSAVYFCARHEAFYVYDVAWFANWGQGTLVTVST
VL: DVVMTQTPLSLPVSLGDQASISCRSSQSLVHSNGNTYLHWFLQKPGQSPNLLIYTVSNRFSGVPDRFSGSGSGTDFTLKISRVEAGDLGVYFCSQSTHFPYTFGGGTKLEIK
notes: as for B4
- Kd [1]: 0.92 nM
- Kd [2]: 1.8 nM
- Kd [3]: 2.1 nM
